Laboratory results: publication PMC12446779, “Structural basis of transglucosylation in dextran dextrinase, a homolog of anomer-inverting GH15 glucoside hydrolases” (The Journal of Biological Chemistry, 2025)
Positions count from the first letter of the chain named. Numbers in names are those of the source.

B1: Δ382C (DDase-Δ382C) (Gluconobacter oxydans) (protein)
chain: MADNSDEQFVASDYTLLGDATDDPNGMVDMPAGQEPATTNAVPSGVEYNFLAATAGYYTVSFAYQNTANAAAYEQLSINGQNEPGVVEFDQTSGASTGTAYASVYLKAGLNSVELNNQTTDETNGLTPVPEDQLQASPAFQIGTSTVAAGASPSQETSAQSLAISNQTDMQAFVQGESMAPKQQWTFGPSLSELHVGSNDELNQLDFNAVWFRNVTPGQQAETYSPYFKSNESFDANGVLHVNYGAYSPTGQALPVQIQATYANVPNENLIVENLSLTNQNASGTQPLVWDVMNATGINPGEVSSTTWDPTHNAWIVTEDQGSGKSPLYLAIGDYQVSNSTHAAGVDGVNVRGSYSLSSGASGNPSLNAPDQGVIGGFENNGTMVGSSSGASGTNLAVGTTDSDVTLNPGQTVDLSYYLSTATSLSQLDANLDKYTNTVGSTTSSTPMTDATGASAASSWTQQTATAWDDTLNQAYNLAGSTETSGQAATAASGQTLDPTSSAAAQSAYRSSLINILQAQSPEYGSFMASTNPSYEYKVWVRDSAATAIGLDDAGLTQPADKFWRWMASVEQNGMNATYSGNASGTFSTNYGEFDQNLPIGFVAPENDSQGLFLIGSYRHYEQMLSEGQTQQAQSFISDPTVRQALVNSANWIQENIGSNGLGPADYSIWEDMYGYHTFTQVTYAEGLNAASQLASAMGEGNQAQTWATGAETIKDAILRPTTASTPGLWNAQEGHFVEMINPNGTIDNTIDADTNIAAVFGLVSPTSIYATENAQAVENALTQDNFGLSRYQNETFYQSSQWSPGGTYEAQGISPSWPQMTAYDSIVSMDSGNTTQANNDLSWIEQSYDNGGTPPGESYDWARGQPIESTSSEPVTASWYVQDLLNSTGQTSTLMPAITGQ
notes: C-terminal truncation Met1-Ser902 (domains N1, N2, HLH, A); N-terminal His6 tag (…) kept; E. coli BL21-CodonPlus(DE3)-RIL; 921 residues with tag; dimer 195,604 Da
B2: Δ382C (DDase-Δ382C) (Gluconobacter oxydans; E671Q) (protein)
chain: B1 chain with E671Q
notes: as for B1

Substrate: OC[C@H]1O[C@H](F)[C@H](O)[C@@H](O)[C@@H]1O
Experiment: fluoride release, colorimetric (Alfusone), Michaelis-Menten fit
Type: biochemical, Gluconobacter oxydans
Conditions: 130 mM sodium acetate pH 4.2, 35 °C, 0.2 mg/ml BSA
Text: fluoride release, colorimetric (Alfusone), Michaelis-Menten fit on Δ382C (DDase-Δ382C)

Protein | Km | kcat | kcat/Km
B1 | 40 ± 4 mM | 15 ± 1 s⁻¹ | 380 M⁻¹ s⁻¹
B2 | 1.5 ± 0.1 mM | 0.025 ± 0.002 s⁻¹ | 17 M⁻¹ s⁻¹
